To fix the notation:
B1: IL-10Rβ, monomeric soluble receptor (receptor)
chain: MVPPPENVRMNSVNFKNILQWESPAFAKGNLTFTAQYLSYRIFQDKCMNTTLTECDFSSLSKYGDHTLRVRAEFADEHSDWVNITFCPVDDTIIGPPGMQVEVLADSLHMRFLAPKIENEYETWTMKNVYNSWTYNVQYWKNGTDEKFQITPQYDFEVLRNLEPWTTYCVQVRGFLPDRNKAGEWSEPVCEQTTHDETVPS
modifications: Alexa 647 label (in the yeast staining)
B3: H11/IFN-λR1 binary complex (complex)
chain 1: GSARGCHIAQFKSLSPRELQAFKRAKDALEESLLLKDCKCRSRLFPRTWDLRQLQVRERPVALEAELALTLKVLDATADTDPALGDVLDQPLHTLHHILSQLRACIQPQPTAGPRTRGRLHRWLHRLQEAPKKESPGCLEASVTFNLFRLLARDLNCVASGDLCEAAAHHHHHHHH
chain 2: RPRLAPPQNVTLLSQNFSVYLTWLPGLGNPQDVTYFVAYQSSPTRRRWREVEECAGTKELLCSMMCLKKQDLYNKFKGRVRTVSPSSKSPWVESEYLDYLFEVEPAPPVLVLTQTEEILSANATYQLPPCMPPLDLKYEVAFWKEGAGNKTLFPVTPHGQPVQITLQPAASEHHCLSARTIYTFSVPKYSKFSKPTCFLLEVPEAN

Test in all cases: SPR
On the technique in general: SPR reads the build-up and loss of mass on a sensor chip optically.

Test [1] deals with B3.
For test [2], the target named is T1, IFN-λR1, soluble recombinant receptor (UniProt Q8IU57 21-226).
T1 sequence: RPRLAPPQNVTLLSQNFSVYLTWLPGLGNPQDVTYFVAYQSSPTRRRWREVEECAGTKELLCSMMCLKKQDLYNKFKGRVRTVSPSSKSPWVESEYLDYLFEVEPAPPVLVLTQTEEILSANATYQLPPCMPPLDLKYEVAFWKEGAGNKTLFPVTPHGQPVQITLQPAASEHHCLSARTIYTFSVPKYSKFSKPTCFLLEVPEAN

Test [3] deals with B1.

By Kd is commonly meant the equilibrium constant for the complex coming apart.

Turning to B1, the “fold increase in affinity against the wild-type IFN-λ3/IFN-λR1 binary complex” value in test [1] came to 30 fold.

B2: Wild-type IFN-λ3, recombinant (ligand)
chain: VPVARLRGALPDARGCHIAQFKSLSPQELQAFKRAKDALEESLLLKDCKCRSRLFPRTWDLRQLQVRERPVALEAELALTLKVLEATADTDPALGDVLDQPLHTLHHILSQLRACIQPQPTAGPRTRGRLHHWLHRLQEAPKKESPGCLEASVTFNLFRLLTRDLNCVASGDLCV
For B2, the Kd in test [2] was roughly 850 nM.

Molecule B3 returned a Kd in test [3] of 560 nM.

B4: IFN-λ3 H11, recombinant (designed binder)
chain: GSARGCHIAQFKSLSPRELQAFKRAKDALEESLLLKDCKCRSRLFPRTWDLRQLQVRERPVALEAELALTLKVLDATADTDPALGDVLDQPLHTLHHILSQLRACIQPQPTAGPRTRGRLHRWLHRLQEAPKKESPGCLEASVTFNLFRLLARDLNCVASGDLCEAAAHHHHHHHH
Take B4: the dissociation constant Kd in test [2] is roughly 150 nM.

These data come from paper PMC5510750 (Immunity, 2017).
